B1: Lysozyme C, P61626 (parent)
chain: MKALIVLGLVLLSVTVQGKVFERCELARTLKRLGMDGYRGISLANWMCLAKWESGYNTRATNYNAGDRSTDYGIFQINSRYWCNDGKTPGAVNACHLSCSALLQDNIADAVACAKRVVRDPQGIRAWVAWRNRCQNRDVRQYVQGCGV

Variants of: B1
Conditions: Homo sapiens, reversible: yes, structure 1LZ1, whole UniProt chain shown
[1] = pH 2.7, 64.9 °C, Thermal, DSC, glycine-HCl 0.05 M
[2] = pH 2.7, Thermal, DSC, glycine-HCl 0.05 M
[3] = pH 4, 10 °C, GdnHCl, CD, glycine-HCl 40 mM

| Variant | ddG of mutation (higher = less stable) [1] | heat capacity change of unfolding [1] | unfolding enthalpy (calorimetric) [1] | Tm [2] | change of melting temperature, mutant - wild type (higher = more stable) [2] | heat capacity change of unfolding [2] | unfolding enthalpy (calorimetric) [2] | ddG of mutation (higher = less stable) [3] | denaturant midpoint (higher = more stable) [3] | unfolding free energy [3] |
| --- | --- | --- | --- | --- | --- | --- | --- | --- | --- | --- |
| R68G | -0.26 kcal/mol | 1.46 kcal/mol/K | 100 kcal/mol | 65.8 °C | 0.9 °C |  |  |  |  |  |
| G55Q | 0.26 kcal/mol | 1.15 kcal/mol/K | 108 kcal/mol | 64.9 °C |  | 1.15 kcal/mol/K | 108 kcal/mol | 0.86 kcal/mol | 3.79 M | 13.5 kcal/mol |
| H96G | 0.12 kcal/mol | 1.58 kcal/mol/K | 109 kcal/mol | 64.9 °C |  | 1.58 kcal/mol/K | 109 kcal/mol | 0.53 kcal/mol | 3.81 M | 13.8 kcal/mol |
| Q76G |  |  |  |  | 5.7 °C | 1.34 kcal/mol/K | 109 kcal/mol | -2.06 kcal/mol | 4.26 M | 16.4 kcal/mol |
